Measured values reported in patent publication US20260325600A1, “FORMULATIONS FOR INTRAOCULAR DELIVERY OF PEPTIDES DERIVED FROM TYPE IV COLLAGEN” (ASCLEPIX THERAPEUTICS, INC., priority 2022, published 2026).

Assays:
[1] = aqueous solution administered into vitreous from animals and people; cited from earlier work
[2] = In vitro gel formation in mock vitreous and homogenization; assay type: physicochemical
Description: In alternative embodiments, microparticles can be prepared and fragmented. For example, a vitreous-like solution (“mock vitreous”) was prepared with sodium hyaluronate and used for in vitro pre-fragmented gel formation experiments. The AXT107 peptide solution is added to the mock vitreous, upon which the peptide forms a gel.

Sequence: LRRFSTAPFAFIDINDVINF [AXT107]
- gel formation in vitreous [1]: precipitate to form a gel-like substance
- product of homogenization of gel ([2]; gels homogenized after formation in mock vitreous): suspended microparticles comparable to those formed in excipient formulation with mixing
- gel formation in mock vitreous ([2]; mock vitreous with sodium hyaluronate): forms a gel
